Tests used:
N36 (HIV-1), P04578 [1] = assay: estimated Kd; method not stated
N36 (HIV-1), P04578 [2] = assay: estimated Kd; method not stated; reference is wild type C37 on N36
[3] = target: wild type Env (gp120/gp41) from HIV-1 strain HXB2 (HIV-1 strain HXB2), P04578; assay: cell-based or functional assay
[4] = target: Res 4 (SDTV) Env from HIV-1 strain HXB2 (HIV-1 strain HXB2), P04578; assay: cell-based or functional assay
[5] = target: V549E mutant Env (Res1) from HIV-1 strain HXB2 (HIV-1 strain HXB2), P04578; assay: cell-based or functional assay
[6] = target: Res 2 (L33S) Env from HIV-1 strain HXB2 (HIV-1 strain HXB2), P04578; assay: cell-based or functional assay
[7] = target: Res 3 Env (N637K) from HIV-1 strain HXB2 (HIV-1 strain HXB2), P04578; assay: cell-based or functional assay

For HTTWMEWDREINKYISLIHSLIEESQNQQEKNEQELL (modifications not checked) [C37-KYI], the Kd (N36 (HIV-1), P04578 [1]) was 0.04 pM, the fold lower Kd than wild type C37 (N36 (HIV-1), P04578 [2]) was over 20 fold and the IC50, nM; inhibitory potency against pseudotyped HIV-1 [3] was 1 nM. For the same binder, the IC50, nM; inhibitory potency against pseudotyped HIV-1 [4] was 0.6 nM, the IC50, nM; inhibitory potency against pseudotyped HIV-1 [5] was 4.2 nM and the IC50, nM; inhibitory potency against pseudotyped HIV-1 [6] was 1 nM. The IC50, nM; inhibitory potency against pseudotyped HIV-1 [7] was 4.1 nM.

Source: patent US20100029568A1, “TIGHTER-BINDING C-PEPTIDE INHIBITORS OF HIV-1 ENTRY” (priority 2007, published 2010)
